# Source: US20090163698A1, “Method for Preparing Antibody Conjugates” (priority 2007, published 2009)
# Target: human αVβ3/5 integrin (human) (UniProt P06756)
# Test: cell-based or functional assay
# Design: IC50 of doxorubicin, cell viability, colon cancer HT29 cells, targeted liposomes 40:1 / IC50 of doxorubicin, cell viability, colon cancer HT29 cells, targeted liposomes 90:1 / IC50 of doxorubicin, cell viability, melanoma A375.S2 cells, targeted liposomes 40:1 / IC50 of doxorubicin, cell viability, melanoma A375.S2 cells, targeted liposomes 90:1 / IC50 of doxorubicin, cell viability, ovarian cancer A2780 cells, targeted liposomes 40:1 / IC50 of doxorubicin, cell viability, ovarian cancer A2780 cells, targeted liposomes 90:1: unit not given beside the values
# Sequence of human αVβ3/5 integrin (human) (P06756 31-1048): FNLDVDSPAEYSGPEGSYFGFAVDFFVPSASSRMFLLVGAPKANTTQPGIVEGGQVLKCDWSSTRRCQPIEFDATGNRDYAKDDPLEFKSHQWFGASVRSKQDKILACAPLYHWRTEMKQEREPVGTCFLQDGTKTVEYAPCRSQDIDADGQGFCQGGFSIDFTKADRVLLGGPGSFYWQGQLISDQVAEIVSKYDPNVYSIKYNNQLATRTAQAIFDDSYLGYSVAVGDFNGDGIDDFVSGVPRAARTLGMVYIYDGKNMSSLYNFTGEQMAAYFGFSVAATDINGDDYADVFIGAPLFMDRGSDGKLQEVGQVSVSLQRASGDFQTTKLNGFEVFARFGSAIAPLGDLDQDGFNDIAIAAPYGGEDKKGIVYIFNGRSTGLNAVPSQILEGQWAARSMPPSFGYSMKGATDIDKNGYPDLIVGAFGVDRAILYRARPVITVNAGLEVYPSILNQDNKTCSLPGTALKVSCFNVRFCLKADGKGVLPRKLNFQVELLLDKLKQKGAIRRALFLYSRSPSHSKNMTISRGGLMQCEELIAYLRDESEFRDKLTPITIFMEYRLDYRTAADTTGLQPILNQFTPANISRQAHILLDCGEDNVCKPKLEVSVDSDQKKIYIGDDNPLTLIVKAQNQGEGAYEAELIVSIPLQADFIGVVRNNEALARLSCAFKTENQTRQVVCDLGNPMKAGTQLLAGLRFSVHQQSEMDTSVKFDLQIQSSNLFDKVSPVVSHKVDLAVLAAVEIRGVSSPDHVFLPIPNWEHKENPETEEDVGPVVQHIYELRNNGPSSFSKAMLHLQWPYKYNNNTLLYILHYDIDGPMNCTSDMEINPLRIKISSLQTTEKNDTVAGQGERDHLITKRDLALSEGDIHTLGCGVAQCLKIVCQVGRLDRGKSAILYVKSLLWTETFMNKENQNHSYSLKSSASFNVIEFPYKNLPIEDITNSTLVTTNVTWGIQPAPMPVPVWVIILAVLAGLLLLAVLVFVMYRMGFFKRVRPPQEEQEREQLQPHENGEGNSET
substance,measurement,value
"CNTO 95 Fab′ (anti-alpha-V Fab′ made by pepsin cleavage of the parent antibody, reduction and reoxidation), conjugated to MalPEG-DSPE on the surface of liposomes","IC50 of doxorubicin, cell viability, colon cancer HT29 cells, targeted liposomes 40:1",180
same,"IC50 of doxorubicin, cell viability, colon cancer HT29 cells, targeted liposomes 90:1",> 200
same,"IC50 of doxorubicin, cell viability, melanoma A375.S2 cells, targeted liposomes 40:1",15
same,"IC50 of doxorubicin, cell viability, melanoma A375.S2 cells, targeted liposomes 90:1",7
same,"IC50 of doxorubicin, cell viability, ovarian cancer A2780 cells, targeted liposomes 40:1",12
same,"IC50 of doxorubicin, cell viability, ovarian cancer A2780 cells, targeted liposomes 90:1",7
same,"Increase (ratio of IC50 of liposome-entrapped doxorubicin to IC50 of 90:1 targeted liposomes), A375.S2 cells",29 fold
same,"Increase (ratio of IC50 of liposome-entrapped doxorubicin to IC50 of 90:1 targeted liposomes), A549 cells",1 fold
same,"Increase (ratio of IC50 of liposome-entrapped doxorubicin to IC50 of 90:1 targeted liposomes), A2780 cells",29 fold
same,"Increase (ratio of IC50 of liposome-entrapped doxorubicin to IC50 of 90:1 targeted liposomes), HT29 cells",1.1 fold
same,"Increase (ratio of IC50 of liposome-entrapped doxorubicin to IC50 of 90:1 targeted liposomes), MDA-MB-231 cells",5 fold
